The target in one test is HLA-A*26:01. The experiment in a line: IEDB peptide-MHC binding, purified MHC/competitive/fluorescence; filed as Kd, often an IC50 or EC50 that approximates it; ≥ and ≤ were set here for values at or beyond the usual limits of such assays.
The target in a further test is HLA-B*44:02. Nature of the test: IEDB peptide-MHC binding, purified MHC/competitive/radioactivity; filed as Kd, often an IC50 or EC50 that approximates it; ≥ and ≤ were set here for values at or beyond the usual limits of such assays.
For a further test, the target named is HLA-B*18:01. The description is as above.
The target in another test is HLA-B*44:03. Described as above.
A further test deals with HLA-B*40:02. Described as above.
A further test has as its target HLA-B*40:01. The test is described as above.
In the next test the target is HLA-B*45:01. The description is as above.
A further test concerns the target HLA-A*30:02. Described as above. Particulars: source organism: Dengue virus 4 Philippines/H241/1956.
Another test addresses HLA-A*01:01. The test is described as above. The settings on record: source organism: Dengue virus 4 Philippines/H241/1956.
In test [1] the target is HLA-B*15:01. The description is as above.
The target in another test is HLA-A*03:01. The experiment in a line: IEDB peptide-MHC binding, purified MHC/competitive/fluorescence; filed as Kd, often an IC50 or EC50 that approximates it; ≥ and ≤ were set here for values at or beyond the usual limits of such assays.
The target of test [2] is HLA-B*15:01. Described as above. The settings on record: source organism: Bacillus anthracis str. A0488.
In a further test the target is HLA-A*23:01. The experiment in a line: IEDB peptide-MHC binding, purified MHC/competitive/radioactivity; filed as Kd, often an IC50 or EC50 that approximates it; ≥ and ≤ were set here for values at or beyond the usual limits of such assays.
The next test deals with HLA-A*02:06. The description is as above. Particulars: source organism: Dengue virus 3 Martinique/1243/1999.
Setting [3] is: source organism: SARS coronavirus Tor2.
Setting [4] is: source organism: Dengue virus 4 Philippines/H241/1956.
Where [5] appears, read: source organism: Lymphocytic choriomeningitis virus (strain Armstrong).
The mark [6] stands for this setting: source organism: Dengue virus 1 Brazil/97-11/1997.
Setting [7] is: source organism: Mammarenavirus juninense.
[8] abbreviates: source organism: Mammarenavirus lassaense.
Setting [9] is: source organism: Lymphocytic choriomeningitis virus (strain WE).
Setting [10] is: source organism: Mammarenavirus guanaritoense.
Setting [11] is: source organism: Mammarenavirus machupoense.
Where [12] appears, read: source organism: Dengue virus 4 Dominica/814669/1981.

What is called Kd is a measure of binding affinity in units of concentration.

In turn, ETIVLLRAF displayed a Kd in the test with HLA-A*26:01 (source organism: Influenza A virus (A/Wellington/22/2001(H3N2))) of 27.6 nM.
Turning to REVLSDREL, the Kd with HLA-B*44:02 (setting [3]) amounted to 1220 nM; with HLA-B*18:01 (setting [3]), 7330 nM; in the test with HLA-B*44:03 (setting [3]) it was 1120 nM; with HLA-B*40:02 (setting [3]) it was 102 nM; with HLA-B*40:01 (setting [3]), 15.6 nM; with HLA-B*45:01 (setting [3]), 1390 nM.
VLMMLVAPSY: the values for the equilibrium dissociation constant (Kd) in the test with HLA-A*30:02, in the test with HLA-A*01:01 and in the test with HLA-B*15:01 [1] (setting [4]) were 26.6 nM, 1000 nM and 10.1 nM, respectively.
On to EEAALCTFL, for which the Kd in the test with HLA-B*44:02 (setting [3]) amounted to 452 nM; with HLA-B*18:01 (setting [3]), 11800 nM; with HLA-B*44:03 (setting [3]), 168 nM; in the test with HLA-B*40:02 (setting [3]) it was 840 nM; in the test with HLA-B*40:01 (setting [3]), 172 nM; in the test with HLA-B*45:01 (setting [3]), 37.8 nM.
In turn, RLLHRTTRK came in with a Kd in the test with HLA-A*03:01 (source organism: Yersinia pestis Nepal516) of 13.3 nM.
In the test with HLA-B*15:01 [2], QSRKEFMSM had a Kd of 66.6 nM.
As for SEISVILQEL, the dissociation constant (Kd) was found to be 106 nM with HLA-B*44:02 (setting [5]); 10300 nM in the test with HLA-B*18:01 (setting [5]); 240 nM with HLA-B*44:03 (setting [5]); 544 nM in the test with HLA-B*40:02 (setting [5]); 868 nM with HLA-B*40:01 (setting [5]); 4170 nM with HLA-B*45:01 (setting [5]).
As for CLIPTAMAF, the dissociation constant (Kd) turned out to be 451 nM in the test with HLA-A*23:01 (setting [4]) and 9.43 nM with HLA-B*15:01 [1] (setting [4]).
For the sequence SQHNYRPGYF, the dissociation constant Kd with HLA-B*15:01 [1] (setting [6]) is 9.37 nM.
For the sequence HDLPLLCNL, the Kd with HLA-B*44:02 (setting [7]) is 1490 nM; with HLA-B*18:01 (setting [7]) it was 12200 nM; in the test with HLA-B*44:03 (setting [7]), 4110 nM; with HLA-B*40:02 (setting [7]), 15.2 nM; in the test with HLA-B*40:01 (setting [7]), at least 38100 nM; in the test with HLA-B*45:01 (setting [7]), at least 77700 nM.
For the sequence SESDLEFSW, the Kd with HLA-B*44:02 (setting [8]) is 9.02 nM; with HLA-B*18:01 (setting [8]) it was 277 nM; with HLA-B*44:03 (setting [8]), 7.4 nM; in the test with HLA-B*40:02 (setting [8]) it was 414 nM; with HLA-B*40:01 (setting [8]), 14900 nM; with HLA-B*45:01 (setting [8]), 1650 nM.
As for ATYQRTRALVR, in the test with HLA-A*03:01 (source organism: Influenza A virus (A/swine/Italy/1509-6/97(H1N1))), the Kd is 38.9 nM.
As for QELYSPLFL, the Kd amounted to 205 nM with HLA-B*44:02 (setting [3]); 5570 nM in the test with HLA-B*18:01 (setting [3]); 222 nM in the test with HLA-B*44:03 (setting [3]); 155 nM with HLA-B*40:02 (setting [3]); 102 nM with HLA-B*40:01 (setting [3]); 2210 nM with HLA-B*45:01 (setting [3]).
As to TENLVIEGPT, the dissociation constant Kd was 14000 nM with HLA-B*44:02 (setting [3]); at least 56400 nM with HLA-B*18:01 (setting [3]); at least 29100 nM in the test with HLA-B*44:03 (setting [3]); 721 nM with HLA-B*40:02 (setting [3]); at least 42900 nM in the test with HLA-B*40:01 (setting [3]); 1830 nM in the test with HLA-B*45:01 (setting [3]).
For the sequence REPTDQKQF, the Kd was 1340 nM with HLA-B*44:02 (setting [9]); at least 77500 nM in the test with HLA-B*18:01 (setting [9]); 8940 nM with HLA-B*44:03 (setting [9]); 6290 nM with HLA-B*40:02 (setting [9]); at least 20400 nM in the test with HLA-B*40:01 (setting [9]); at least 77700 nM in the test with HLA-B*45:01 (setting [9]).
With SEDGLDGFDW, the Kd with HLA-B*44:02 (setting [10]) was 21.3 nM; with HLA-B*18:01 (setting [10]) it was at least 35300 nM; in the test with HLA-B*44:03 (setting [10]) it was 21.2 nM; in the test with HLA-B*40:02 (setting [10]), 14400 nM; with HLA-B*40:01 (setting [10]) it was 14600 nM; in the test with HLA-B*45:01 (setting [10]), at least 56700 nM.
In the case of LLAISAVYF, the equilibrium dissociation constant (Kd) with HLA-B*15:01 [1] (source organism: Vaccinia virus WR) came to 31.7 nM.
DLYRMYSRY registered a dissociation constant Kd in the test with HLA-A*26:01 (source organism: Actinobacillus pleuropneumoniae serovar 1 str. 4074) of 301 nM.
With EELSLMYEAL, the Kd with HLA-B*44:02 (setting [11]) stood at 1790 nM; in the test with HLA-B*18:01 (setting [11]), 1810 nM; in the test with HLA-B*44:03 (setting [11]) it was 2000 nM; with HLA-B*40:02 (setting [11]), 205 nM; in the test with HLA-B*40:01 (setting [11]) it was 15400 nM; with HLA-B*45:01 (setting [11]), 1590 nM.
For the sequence AETGSQGVYM, the dissociation constant Kd with HLA-B*44:02 (setting [7]) was 304 nM; with HLA-B*18:01 (setting [7]), at least 70400 nM; with HLA-B*44:03 (setting [7]) it was 1040 nM; with HLA-B*40:02 (setting [7]) it was 184 nM; with HLA-B*40:01 (setting [7]), 3030 nM; with HLA-B*45:01 (setting [7]), 13600 nM.
Consider AQMWSLMYF, for which the Kd was 12.8 nM with HLA-A*02:06 and 0.33 nM with HLA-B*15:01 [1] (source organism: Dengue virus 3 Martinique/1243/1999).
In the case of SQKTTWLPVL, in the test with HLA-B*15:01 [1] (setting [6]), the dissociation constant (Kd) was found to be 91.5 nM.
For the sequence CLIPTVMAF, the Kd with HLA-A*23:01 (setting [12]) worked out at 81.9 nM; with HLA-B*15:01 [1] (setting [12]), 0.64 nM.

The values above are taken from the Immune Epitope Database (IEDB).
